The values below come from paper PMC3483115.

Usually stoichiometry N stands for a count of units in the complex or per binding partner.

The target of the assay is TRPV1-CT44 (TRPV1 C-terminal residues 759–802) (rat) (UniProt O35433). In words: other fluorescence titration.
Sequence of TRPV1-CT44 (TRPV1 C-terminal residues 759–802) (rat) (O35433 759-802): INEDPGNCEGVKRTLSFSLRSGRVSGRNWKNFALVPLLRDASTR

On to “calmodulin (CaM), wild type (from UniProt P0DP23 1-149) (natural protein)”, for which the stoichiometry N amounted to 1.
